Test results as given in article PMC4699388.

What was measured:
[1] = molecular target: GATA-1^S310A (human) (UniProt P15976); test: co-IP
[2] = molecular target: GATA-1^S310A (human) (UniProt P15976)

Chain of UniProt P15976 (P15976 whole entry S310A): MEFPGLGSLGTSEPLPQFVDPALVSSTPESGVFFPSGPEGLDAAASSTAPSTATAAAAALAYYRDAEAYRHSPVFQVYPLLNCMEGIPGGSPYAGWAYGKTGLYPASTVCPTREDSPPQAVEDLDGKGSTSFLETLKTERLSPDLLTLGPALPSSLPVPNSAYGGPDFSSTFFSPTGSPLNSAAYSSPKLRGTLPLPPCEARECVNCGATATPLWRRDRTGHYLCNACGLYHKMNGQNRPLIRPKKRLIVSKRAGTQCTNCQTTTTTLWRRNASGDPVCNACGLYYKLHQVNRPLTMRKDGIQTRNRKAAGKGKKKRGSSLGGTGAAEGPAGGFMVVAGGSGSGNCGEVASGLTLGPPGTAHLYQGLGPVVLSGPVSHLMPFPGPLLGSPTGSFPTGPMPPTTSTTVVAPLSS

rate of binding to FOG-1 [1]: 62
relative affinity against wild-type GATA-1 (fold less) [2]: 25 fold
Substance: FOG-1 (mouse), in NIH-3T3 cells (from UniProt O35615 1-995) (natural protein)
